Assay results as given in patent US20200157194A1 (Regeneron, published 2020).

T1: recombinant human GREM1 (hGREM1-His; C-terminal 10His tagged, R&D, #5190-GR) (human, UniProt O60565 25-184, limits assumed)
T1 sequence: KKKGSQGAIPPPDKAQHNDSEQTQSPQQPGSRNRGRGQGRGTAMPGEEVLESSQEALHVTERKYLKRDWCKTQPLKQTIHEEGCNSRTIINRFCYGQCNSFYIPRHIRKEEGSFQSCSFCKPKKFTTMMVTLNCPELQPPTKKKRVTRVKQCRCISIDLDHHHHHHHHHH

T2: human GREM1 (hGREM1-His; SEQ ID NO: 595) (human, UniProt O60565 25-184)
T2 construct: also called biotin-hGREM1-His; recombinant human GREM1 protein
T2 sequence: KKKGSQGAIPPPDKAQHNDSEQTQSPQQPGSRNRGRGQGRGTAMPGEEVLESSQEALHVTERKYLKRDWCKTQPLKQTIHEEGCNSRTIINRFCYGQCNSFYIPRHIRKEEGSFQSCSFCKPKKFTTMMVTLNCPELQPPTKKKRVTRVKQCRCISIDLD


What was measured:
[1] = target: T1, recombinant human GREM1 (hGREM1-His; …); assay: cell-based or functional assay
[2] = target: T2, human GREM1 (hGREM1-His; SEQ ID NO: 595); assay: SPR, Biacore T200, 25 C, mAb captured, hGREM1-His injected;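 further: Heparin-supplemented HBS-EP+ used as running buffer, association and dissociation phases followed, Kd computed as koff divided by kon and half-life derived from koff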
Description: Kinetic experiments were carried out using HBS-EP+heparin [10 mM HEPES, 150 mM NaCl, 3 mM EDTA, 0.05% (v/v) surfactant P20, 10 μg/ml heparin sodium salt, pH 7.4] as both the running buffer and the sample buffer. […] Antigen-antibody association was monitored for 150 seconds while dissociation in buffer was monitored for 420 seconds. Kinetic analysis was performed using Scrubber software version 2.0a or Biacore T200 evaluation software v1.0 to determine kₐ and kd values. KD and t_{1/2} were then calculated from the experimentally determined kₐ and kd values as KD=kd/kₐ and t_{1/2}=In(2)/kd.

[3] = target: T1, recombinant human GREM1 (hGREM1-His; …); assay: BLI Octet, mAb captured, 100 nM GREM1 without vs with 5 uM heparin;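 further: octet Red96 biolayer interferometry at 25 °C, antibodies captured on anti-human IgG Fc biosensors, association of GREM1 measured with versus without heparin in HEPES-buffered saline, pH 7.4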
Description: (§1) Binding measurements were conducted using an Octet Red96 label-free biomolecular interaction instrument (ForteBio). All experiments were performed at 25° C. using plate agitation at 1000 rpm. Solutions were made in an aqueous buffer containing 10 mM HEPES, 150 mM NaCl, 3 mM EDTA 0.05% P20, 0.1 mg/mL BSA and adjusted to pH of 7.4 (HBST buffer).
(§2) Anti-Human IgG Fc Capture biosensors (ForteBio) were separately loaded with 50 μg/mL solutions of 24 different anti-GREM1 antibodies for 60 seconds. Following a 30 second wash, duplicate biosensors for each antibody were submerged into wells containing either 100 nM GREM1 solutions or 100 nM GREM1 solutions containing 5 μM of heparin, measuring association for 300 seconds.

[4] = target: T1, recombinant human GREM1 (hGREM1-His; …); assay: cell-based or functional assay; remark: listed apart in the source
[5] = target: T2, human GREM1 (hGREM1-His; SEQ ID NO: 595); assay: competition ELISA, biotin-hGREM1-His (100 pM) binding to coated hBMP4
Description: Data were analyzed using a sigmoidal dose-response model within Prism™ software. […] The absorbance values of the wells containing the highest concentration for each antibody were used to determine the percent maximum blocking.

[6] = target: T1, recombinant human GREM1 (hGREM1-His; …); assay: BLI Octet, mAb captured, 100 nM GREM1 + 5 uM heparin;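 further: octet Red96 biolayer interferometry at 25 °C, antibodies captured on anti-human IgG Fc biosensors, pH 7.4 HEPES buffer with 0.1 mg/mL BSA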
Description: as §1, §2

[7] = target: T2, human GREM1 (hGREM1-His; SEQ ID NO: 595); assay: SPR, Biacore T200, 37 C, mAb captured, hGREM1-His injected;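 further: HBS-EP running buffer containing heparin, association and dissociation phases tracked, KD computed as koff over kon and half-life derived from koff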
[8] = target: T1, recombinant human GREM1 (hGREM1-His; …); assay: BLI Octet, mAb captured, 100 nM GREM1;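 further: octet Red96 biolayer interferometry at 25 °C in pH 7.4 HEPES saline buffer, antibodies held on anti-human IgG Fc capture biosensors, then exposed to GREM1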
Description: as §1, §2

| IC50 [M], inhibition of hGREM1-His, W-20-17/BRE-luc luciferase (100 pM hBMP4, 10 nM hGREM1-His) [1] [M] | Kd [2] [nM] | koff [2] [s⁻¹] | kon [2] [M⁻¹ s⁻¹] | t1/2 [2] [min] | Reduction in Signal from Heparin at 30 sec [3] [nm] | Reduction in Signal from Heparin at 300 sec [3] [nm] | hGREM1-His Inhibition IC50, M; W-20-17 cell differentiation assay (alkaline phosphatase) [4] [nM] | % blocked at maximum Ab tested (20 nM) [5] [%] | IC50 [5] [nM] | Binding Signal with 30 sec Association [6] [nm] | Binding Signal with 300 sec Association [6] [nm] | Kd [7] [nM] | koff [7] [s⁻¹] | kon [7] [M⁻¹ s⁻¹] | t1/2 [7] [min] | Binding Signal with 30 sec Association [8] [nm] | Binding Signal with 300 sec Association [8] [nm] | Binder |
| --- | --- | --- | --- | --- | --- | --- | --- | --- | --- | --- | --- | --- | --- | --- | --- | --- | --- | --- |
| 5.3e-10 | 1.51 | 0.000117 | 77900 | 98 | 0.21 | 0.19 | 6.1 | 96 | 0.036 | 0.02 | 0.22 | 2.53 | 0.000262 | 103000 | 44 | 0.23 | 0.41 | H4H6245P (antibody, human IgG4, V domains shown, H4H prefix = human IgG4 Fc) VH: EVQLVESGGGLVQPGGSLRLSCAASGFTFNSFWMSWVRQAPGKGLEWVANIKQDGSEKYYVDSVKGRFTISRDNAKNSVYLQMNSLRAEDTAVYYCARDLVTSFDYWGQGTLVTVSS VL: DIQMTQSPSSLSASVGDRVTITCQASQDINNYLNWYQQKPGKAPKLLIYDASYLETGVPSGFSGSGSGTDFTFTISSLQPEDIATYYCQQYDSLPYTFGQGTKLEIK |
| 4.4e-10 | 3.3 | 0.000297 | 90100 | 39 | 0.14 | 0.05 | 12 | 42 | 0.11 | 0.06 | 0.32 | 5.93 | 0.000882 | 149000 | 13 | 0.2 | 0.37 | H4H6250P (antibody, human IgG4, V domains shown, H4H prefix = human IgG4 Fc) VH: QVQLVESGGGVVQPGRSLRLSCAASGFTFSNYGMHWVRQAPGKGLEWVAVIWYDGSNKYYADSVKGRFTISRDNSRKTLYLQMNSLRAEDTAIYYCTRDDYGDYDYPFDYWGQGTLVTVSS VL: DIQMTQSPSSLSASVGDRVTITCRASQGIRNDLGWYQQKPGKAPKRLIYAASSLQSGVPSRFSGTGSGTEFTLTISSLQPEDFATYYCLQHNSYPPFTFGPGTKVDIK |
| 5.6e-10 | 2.59 | 0.000192 | 73900 | 60 | 0.13 | 0.04 | 6.2 | 62 | 1.5 | 0.06 | 0.34 | 3.5 | 0.000444 | 127000 | 26 | 0.19 | 0.38 | H4H6246P (antibody, human IgG4, V domains shown, H4H prefix = human IgG4 Fc) VH: QVQLVESGGGVVQPGRSLRLSCAASGFTFSSYGMHWVRQAPGKGLEWVAIIWYDGSNRYYADSVKGRFTISRDNSRNTLYLQMNSLRAEDTAVYYCARDEYGDYDYPFDYWGQGTLVTVSS VL: DIQMTQSPSSLSASVGDRVTITCRASQGIRNDLGWFQQKPGKAPKRLIYAASSLQSGVPSRFSGSGSGTEFTLTISSLQPEDFATYYCLQHNTYPPFTFGPGTKVDIK |
| 8.2e-10 | 1.02 | 7.58e-05 | 74600 | 152 | 0.19 | 0.09 | 6.1 | 53 | 0.19 | 0.04 | 0.35 | 4.14 | 0.000459 | 111000 | 25 | 0.23 | 0.44 | H4H6252P (antibody, human IgG4, V domains shown, H4H prefix = human IgG4 Fc; also called H4H6252S) VH: QVQLVESGGGVVQPGRSLRLSCAASGFTFSNYGMHWVRQAPGRGLEWVAVIWFDGSNKYYADSVKGRFTISRDNSKNTLYLQMNSLRSEDTAVYYCTRDDYGDYDYPFDYWGQGTLVTVSS VL: DIQMTQSPSSLSASVGDRVTITCRASQGIRNDLGWYQQKPGKAPKRLIYAASSLQSGVPSRFSGSGSGTEFTLTISSLQPEDFATYYCLQYNTYPPFTFGPGTKVDIK |
| 5.3e-10 | 1.54 | 7.73e-05 | 50300 | 149 | 0.17 | 0.05 | 5.6 | 62 | 0.21 | 0.04 | 0.37 | 5.69 | 0.000487 | 85500 | 24 | 0.21 | 0.42 | H4H6248P (antibody, human IgG4, V domains shown, H4H prefix = human IgG4 Fc) VH: QVQLVESGGGVVQPGRSLRLSCAASGFTFSNYGMHWVRQVPGKGLEWVAVIWYDGSNKYYADSVKGRFTISRDNSKNTLYLQMNSVRAEDTAVYYCARDDYGDSPGFDYWGQGTLVTVSS VL: EIVMTQSPATLSVSPGERATLSCRASQSVSSSLAWYQQKPGQAPRLLIYDASTRATGIPARFSGSGSGTEFTLTISGLQSEDFAVYYCQQYNNWPPWTFGQGTKVEIK |
| 5.4e-10 | 1.19 | 0.000107 | 90000 | 108 | 0.13 | 0.02 | 5.7 | 75 | 0.087 | 0.07 | 0.38 | 4.08 | 0.000466 | 114000 | 25 | 0.2 | 0.4 | H4H6256P (antibody, human IgG4, V domains shown, H4H prefix = human IgG4 Fc) VH: QVQLVESGGGVVQPGRSLRLSCAASGFTFSAYGMHWVRQGPGKGLEWVAVIWYDGSNKYYADSVKGRFTISRDNSKNTLYLQMNRLRAEDTAVYYCARDDYGDSPGFDHWGQGTLVTVSS VL: EIVMTQSPATLSVSPGERATLSCRASQSVSSELAWYQQKPGQAPRLLLYGASTRATGIPARFSGSGSGTEFTLTISSLQSEDFAVYYCQQYSNWPPWTFGQGTKVEIK |
| 6.3e-10 | 23.1 | 0.000652 | 28200 | 18 | 0.24 | 0.09 | 11 | 62 | 0.11 | 0.03 | 0.36 | 275 | 0.00694 | 25300 | 2 | 0.27 | 0.45 | H4H6251P (antibody, human IgG4, V domains shown, H4H prefix = human IgG4 Fc) VH: QVQLVESGGGVVQPGKSLRLSCAASGFTFSRYGMHWVRQAPGKGLEWVAVIWYDGSNKYYADSVKGRFTISRDNSKNTLYLQMNSLRADDTAMYYCARDDYGDSPGFDFWGQGTLVTVSS VL: EIVMTQSPATLSVSPGERATLSCRASQSVSSNLAWYQQKPGQAPRLLIYDASTRATGIPARFSGTGSGTEFTLTISSLQSEDFALYYCQQYDDWPPWTFGQGTKVEIK |
